Molecular target: SARS-CoV-2 spike (reference strain) expressed on CHO-K1 cells (SARS-CoV-2 reference strain (Wuhan-Hu-1), UniProt P0DTC2)
Assay: flow cytometry on cells
Conditions: one partner purified

B1: BA7208 (antibody, V domains shown)
VH: EVQLVQSGAEVKKPGESLKISCKGSGYSFTSYYWIGWVRQMPGKGLEWMGIVYPDDSDTRYSPSFQGQVTISADKSISTAYLQWSSLKASDTAMYYCVRHPGGGDWYFDLWGRGTLVTVSS
VL: DIQMTQSPSTLSASVGDRVTITCRASQSISSWLAWYQQKPGKAPKLLIYKASSLESGVPSRFSGSGSGTEFTLTITSLQPDDFATYYCQQYDSFSWTFGQGTKLEIK
- binding result: binds
